# Source: US20150148405A1, “Expression Construct for a Lin28-Resistant Let-7 Precursor MicroRNA” (THE JOHNS HOPKINS UNIVERSITY, priority 2012, published 2015)
# B1: BDNF: brain-derived neurotrophic factor, a neurotrophin used to stimulate hippocampal neurons (protein, UniProt P23560 19-247, looked up)
# Neurotrophic factor BDNF …: APMKEANIRGQGGLAYPGVRTHGTLESVNGPKAGSRGLTSLADTFEHVIEELLDEDQKVRPNEENNKDADLYTSRVMLSSQVPLEPPLLFLLEEYKNYLDAANMSMRVRRHSDPARRGELSVCDSISEWVTAADKKTAVDMSGGTVTVLEKVPVSKGQLKQYFYETKCNPMGYTKEGCRGIDKRHWNSQCRTTQSYVRALTMDSKKRIGWRFIRIDTSCVCTLTIKRGR
# What was measured:
# Assay type in all cases: cell-based, mouse
# [1] = system: hippocampal pyramidal neurons; experiment: Endogenous P-body numbers by GW182 immunostaining; settings: 75 min after stimulation; mock 11.36±1.21; p<0.05
# Description: For fixed cells, confocal images were acquired in 0.3 μm (dendrites) or 1.7 μm (whole cells for arborization) Z sections on an LSM5 Pascal system (Carl Zeiss) using a 63×, 1.4 NA Plan Apochromat oil immersion objective and 2× optical zoom (dendrites) or using a 25×, 0.80 NA Plan-Neofluor multi-immersion objective and 0.7×-1× optical zoom (for whole cells). GFP was excited at 488 nm and emissions collected at 505-530 nm; mCherry was excited at 543 nm and emissions collected above 560 nm. Laser power and exposure time were adjusted to minimize photobleaching and avoid saturation. All experiments were from a minimum of 3 independent cultures and no more than 3 neurons per dish Z-stacks containing the entire neuron or process of interest were analyzed using Imaris 7.0.0 (Bitplane) and ImageJ software. […] The percent colocalization of P-body components was calculated by […]. The percent of colocalized fluorescence was calculated for each P-body component by first summing the aggregate fluorescence values that co-localized with the other P-body marker in ‘spots’, then dividing this quantity by the value of the total fluorescence intensity within the dendrite for that channel, and multiplying by 100. […]
# mature miRNA = experiment: miRNA profiling arrays (Taqman Rodent MicroRNA Array A); settings: BDNF 30 min, plus Actinomycin-D
# Method: Murine hippocampal cultures were preincubated for 10-20 minutes with […] Actinomycin D and either mock- or BDNF- (100 ng/mL) stimulated for 30 minutes before harvesting.
# For miRNA arrays, […] of total RNA for each sample was reverse-transcribed with stem-looped Megaplex RT Primers (Applied Biosystems) in a final volume of 7.5 μL according to manufacturer's instructions: preincubation at 4° C. for 5 min; 16° C. for 2 min, 42° C. for 1 min, 50° C. for 1 sec, 40 cycles; 85° C. for 5 min. The entire cDNA RT product (7.5 μk) was subjected to RT-qPCR on an Applied Biosystems 7900HT Fast Real-Time PCR system using Taqman Rodent MicroRNA Array A. Data were compiled in SDS RQ Manager 1.2.1 and analyzed in Data Assist 2.0 (Applied Biosystems); RQ was calculated as 2^−LCtBDNF/2^LCtmock where LCt=(cycle threshold for miRNA of interest)−(cycle threshold for reference control) (Schmittgen and Livak, 2008). Thresholds and cycle threshold (Ct) values were determined using default settings and the maximum allowable Ct value was set at 35.0 inclusive. Data were normalized by arithmetic mean using MammU6 (4395470) and snoRNA202 (4380914) reference RNAs as controls. miRNA array data are reposited with the NCBI Gene Expression Omnibus (GEO). […]
# Dicer = experiment: Immunoblotting for Dicer; settings: BDNF-stimulated neurons, Actinomycin-D
# Method: (§1) Primary cultures of mouse hippocampal neurons (DIV 14 15) were incubated in serum-reduced medium (0.5% B27 supplement) for 2 hours, followed by […] Actinomycin-D for 10-20 min. Bath application of BDNF (100 ng/mL) was for designated periods (5 min-2 hours). The cultures were washed 3 times and harvested on ice with lysis buffer (50 mM Hepes, 150 mM NaCl, 10% Glycerol, 1 mM EDTA, 1% Triton-X-100, 0.2% SDS) plus freshly added protease inhibitor cocktail (Roche) and PMSF. Protein concentration was determined by Bradford Assay. If required, lysates were treated with Lambda Protein Phosphatase according to manufacturer's instructions (New England Biolabs […]). Equal amounts of lysate protein were resolved on SDS-PAGE gels, and electrotransferred to PVDF membrane. […]
# Lin28a = experiment: Immunoblotting for Lin28a; settings: mature neurons, by 5 min following BDNF exposure
# Method: as §1
molecule,measurement,setting,value
B1,"endogenous P-body numbers in individual neuronal dendrites, mean±SEM",[1],15.48±1.26
same,detectable miRNAs with significantly altered levels decreased to <50%,mature miRNA,10.6%
same,detectable miRNAs with significantly altered levels increased more than 2-fold,mature miRNA,89.4%
same,Dicer levels,Dicer,marked transcription-independent increase in Dicer levels
same,time of peak Dicer levels after stimulation,Dicer,5 to 20 min
same,Lin28a protein,Lin28a,robust and rapid transcription-independent increase in Lin28a
